Here are results for one molecule from patent publication US12383572B2, “Administration of an anti-activin-a compound to a subject” (AMGEN INC., priority 2013, dated 2025).

Assay [1] concerns TOV-21G, BAEC, MRC-5, CCD-Lu, U937 and THP-1 cultures. Description: Real-time RT-PCR of VEGF, Ang-1 and βA in cell cultures treated with recombinant activin-A. The class given is cell-based. The following applies: BAEC. From the text:
ID NO: 291), [NT] ID NO: 292), and TaqMan probe [NT] ID NO: 293).
In general terms: Quantitative PCR measures a nucleic acid by following its amplification.

In assay [2] the test system is TOV-21G, MRC-5, CCD-Lu and THP-1 cell cultures. Nature of the assay: VEGF and Ang-1 ELISA of cell culture medium after recombinant activin-A. In kind it is cell-based, human. As to conditions: TOV21G, MRC-5, CCD-Lu and TPH-1 cells treated with activin-A. On the procedure:
The serum VEGF levels in inh-KO mice were measured by using immunoassay kit (R & D Systems), and the levels of human VEGF and Ang-1 in cell line culture medium were quantified using ELISA kits purchased from Invitrogen (VEGF) and R & D Systems (Ang-1), by following the manufacturers' recommended protocols.
(In general: ELISA stands for enzyme-linked immunosorbent assay.)

B1: recombinant activin-A: Recombinant activin-A was produced using mammalian expression system (Amgen Inc) (protein, UniProt P08476 311-426, looked up)
Inhibin beta A chain: GLECDGKVNICCKKQFFVSFKDIGWNDWIIAPSGYHANYCEGECPSHIAGTSGSSLSFHSTVINHYRMRGHSPFANLKSCCVPTKLRPMSMLYYDDGQNIIKKDIQNMIVEECGCS
With B1, the “Ang-1 mRNA (real-time PCR)” value in assay [1] (MRC-5 and CCD-Lu cultures treated with recombinant activin-A) is “also of Ang-1 mRNA in BAEC, MRC-5 and CCD-Lu cultures”. In addition, in assay [1] (TOV21G, MRC-5, CCD-Lu, U937 and THP-1 cultures, recombinant activin-A added), the “endogenous activin-A (βA) mRNA expression” value was “markedly upregulated βA expression in all these cells”. In addition, the “VEGF transcripts (real-time PCR)” value in assay [1] (TOV-21G, MRC-5 or CCD-Lu, U937 cultures treated with recombinant activin-A) is reported as “marked increases in the levels of VEGF transcripts in all these cultures”. In addition, the “release of VEGF into the culture medium (ELISA)” value in assay [2] is given as “increased the release of VEGF”.
